The record followed here is patent publication US20250002594A1 (SHANGHAI EPIMAB BIOTHERAPEUTICS, published 2025).

Numbering of substitutions follows the chain as printed.

B1: huFIT2019-86b-25 (bispecific antibody, human IgG1, kappa, L234A L235A)
chain 1: not shown
chain 2: EVQLVQSGAEVKKPGASVKVSCKASGYRFSDYVISWVRQATGQGLEWMGEIYPGDAQTYYNEMFKGRVTMTADTSISTAYMELSSLRSEDTAVYYCARGSYTYDNYAMDFWGQGTTVTVSSASTKGPSVFPLAPSSKSTSGGTAALGCLVKDYFPEPVTVSWNSGALTSGVHTFPAVLQSSGLYSLSSVVTVPSSSLGTQTYICNVNHKPSNTKVDKKVEPKSC
chain 3: not shown
B2: huFIT2019-86b-26 (bispecific antibody, human IgG1, kappa, L234A L235A)
chain 1: not shown
chain 2: B1 chain 2 with R28T, S30T, M70L
chain 3: not shown
B3: huFIT2019-86b-34 (bispecific antibody, human IgG1, kappa, L234A L235A)
chain 1: not shown
chain 2: B1 chain 2 with R28T, S30T, A56G, Q57N, A72R
chain 3: not shown
B4: huFIT2019-86b-28 (bispecific antibody, human IgG1, kappa, L234A L235A)
chain 1: not shown
chain 2: B1 chain 2 with R38K, M48I, V68A, M70L, T74K, Y95F
chain 3: not shown
B5: huFIT2019-86b-33 (bispecific antibody, human IgG1, kappa, L234A L235A)
chain 1: not shown
chain 2: B1 chain 2 with R28T, S30T, A56G, Q57N, A72R
chain 3: not shown
B6: huFIT2019-86b-30 (bispecific antibody, human IgG1, kappa, L234A L235A)
chain 1: not shown
chain 2: B1 chain 2 with R28T, S30T, A72R
chain 3: not shown
B7: huFIT2019-86b-31 (bispecific antibody, human IgG1, kappa, L234A L235A)
chain 1: not shown
chain 2: B1 chain 2 with R28T, S30T, A72R
chain 3: not shown
B8: huFIT2019-86b-36 (bispecific antibody, human IgG1, kappa, L234A L235A)
chain 1: not shown
chain 2: B1 chain 2 with R28T, S30T, A56G, Q57N, A72R
chain 3: not shown
B9: huFIT2019-86b-27 (bispecific antibody, human IgG1, kappa, L234A L235A)
chain 1: not shown
chain 2: B1 chain 2 with R28T, S30T, R38K, M48I, V68A, M70L, T74K
chain 3: not shown
B10: huFIT2019-86b-29 (bispecific antibody, human IgG1, kappa, L234A L235A)
chain 1: not shown
chain 2: B1 chain 2 with R28T, S30T, A72R
chain 3: not shown
B11: huFIT2019-86b-47 (bispecific antibody, human IgG1, kappa, L234A L235A)
chain 1: not shown
chain 2: B1 chain 2 with R28T, S30T, D55E, A56G, Q57N, A72R
chain 3: not shown
B12: huFIT2019-86b-48 (bispecific antibody, human IgG1, kappa, L234A L235A)
chain 1: not shown
chain 2: B1 chain 2 with R28T, S30T, A56G, Q57N, A72R
chain 3: not shown
B13: huFIT2019-86b-32 (bispecific antibody, human IgG1, kappa, L234A L235A)
chain 1: not shown
chain 2: B1 chain 2 with R28T, S30T, A56G, Q57N, A72R
chain 3: not shown
notes: also called huFIT9-86b-32
B14: huFIT2019-86b-35 (bispecific antibody, human IgG1, kappa, L234A L235A)
chain 1: not shown
chain 2: B1 chain 2 with R28T, S30T, A56G, Q57N, A72R
chain 3: not shown
B15: huFIT2019-86b-46 (bispecific antibody, human IgG1, kappa, L234A L235A)
chain 1: not shown
chain 2: B1 chain 2 with R28T, S30T, Q57N, A72R
chain 3: not shown
B16: huFIT2019-86b-50 (bispecific antibody, human IgG1, kappa, L234A L235A)
chain 1: not shown
chain 2: B1 chain 2 with R28T, S30T, A56G, Q57N, A72R
chain 3: not shown
B17: huFIT2019-86b-45 (bispecific antibody, human IgG1, kappa, L234A L235A)
chain 1: not shown
chain 2: B1 chain 2 with R28T, S30T, A72R
chain 3: not shown
B18: huFIT2019-86b-49 (bispecific antibody, human IgG1, kappa, L234A L235A)
chain 1: not shown
chain 2: B1 chain 2 with R28T, S30T, A56G, Q57N, A72R
chain 3: not shown

The target of one test is T1, recombinant human CD122 (human, UniProt P14784 27-239, limits assumed).
T1 construct: also called IL-2Rβ
T1 sequence (looked up): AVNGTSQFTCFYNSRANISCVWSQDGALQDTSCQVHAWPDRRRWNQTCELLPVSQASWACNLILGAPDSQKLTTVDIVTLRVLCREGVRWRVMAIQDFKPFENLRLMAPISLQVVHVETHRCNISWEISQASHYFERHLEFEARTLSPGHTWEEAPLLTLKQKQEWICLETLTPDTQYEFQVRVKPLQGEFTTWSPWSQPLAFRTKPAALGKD
Put plainly: GCI (WAVEsystem). On the procedure:
(§1) Binding affinity and kinetics constants of humanized CD122/CD132 FIT-Ig were determined using a label-free biosensor on WAVEsystem (Creoptix AG, Switzerland) by grating-coupled interferometry (GCI). Briefly, a PCP WAVEchip (Creoptix AG) was pre-immobilized with goat anti-human IgG Fc antibody to a density of 3830 pg/mm² by amine coupling, and used to capture humanized CD122/CD132 FIT-Ig generated from Example 3.2.1 to a density of ˜90 pg/mm², then exposed to recombinant human/cyno CD122 or CD132 serially diluted (3× dilutions from 200 nM to […] for human CD122, human CD132 and cyno CD132, respectively; and from 1000 nM to 1.37 nM for cyno CD122) in 1X HBS-EP+ buffer (Cytiva, Cat No. BR100669) by injection at 60 μL/min for 250s to assess association, followed by 1200s dissociation. After each round of association and dissociation, WAVEchip surface was regenerated by subject to pH 1.5 Glycine-HCl buffer injection at 60 μL/min for 120s. Sensorgrams were recorded at 25° C., the data were analyzed on WAVEcontrol (Creoptix AG) and double referenced by subtracting the signals from blank injections and the reference channel. A Langmuir 1:1 model was used for data fitting.
B1: the binding result is “binds”.

For B2, the binding result is “binds”.

Consider B3, for which the binding result was “binds”.

B4: the binding result was “binds”.

Regarding B5, the binding result was “binds”.

Take B6: the binding result is on record as “binds”.

Turning to B7, the binding result is recorded as “binds”.

Take B8: the binding result is “binds”.

With B9, the binding result is reported as “binds”.

Regarding B10, the binding result is on record as “binds”.

A further test has as its target T2, recombinant human CD132 (human, UniProt P31785 23-262, limits assumed).
T2 construct: also called IL-2Rγ
T2 sequence (looked up): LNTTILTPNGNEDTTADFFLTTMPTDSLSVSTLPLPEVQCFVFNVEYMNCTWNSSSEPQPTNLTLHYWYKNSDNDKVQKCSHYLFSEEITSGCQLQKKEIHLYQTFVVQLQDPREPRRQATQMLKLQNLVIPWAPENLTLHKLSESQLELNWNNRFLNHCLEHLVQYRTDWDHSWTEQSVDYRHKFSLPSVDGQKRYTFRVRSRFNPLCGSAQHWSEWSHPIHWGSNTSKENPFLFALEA
Put plainly: GCI (WAVEsystem). On the procedure: as §1
Regarding B1, the binding result is “binds”.

With B11, the binding result was “binds”.

Take B12: the binding result is on record as “binds”.

As to B2, the binding result is on record as “binds”.

B3: the binding result is given as “binds”.

With B13, the binding result was “binds”.

Regarding B4, the binding result is recorded as “binds”.

B5: the binding result is recorded as “binds”.

With B14, the binding result is listed as “binds”.

On to B15, for which the binding result is listed as “binds”.

For B16, the binding result was “binds”.

As to B17, the binding result was “binds”.

For the molecule B6, the binding result was “binds”.

On to B7, for which the binding result is “binds”.

With B18, the binding result was “binds”.

B8: the binding result is “binds”.

Consider B9, for which the binding result is “binds”.

With B10, the binding result is recorded as “binds”.

For a further test, the target named is T3, CD122/CD132 complex on HEK-Blue IL-2 cells (UniProt P14784 27-551; P31785 23-369, limits assumed).
T3 sequence (looked up) 1: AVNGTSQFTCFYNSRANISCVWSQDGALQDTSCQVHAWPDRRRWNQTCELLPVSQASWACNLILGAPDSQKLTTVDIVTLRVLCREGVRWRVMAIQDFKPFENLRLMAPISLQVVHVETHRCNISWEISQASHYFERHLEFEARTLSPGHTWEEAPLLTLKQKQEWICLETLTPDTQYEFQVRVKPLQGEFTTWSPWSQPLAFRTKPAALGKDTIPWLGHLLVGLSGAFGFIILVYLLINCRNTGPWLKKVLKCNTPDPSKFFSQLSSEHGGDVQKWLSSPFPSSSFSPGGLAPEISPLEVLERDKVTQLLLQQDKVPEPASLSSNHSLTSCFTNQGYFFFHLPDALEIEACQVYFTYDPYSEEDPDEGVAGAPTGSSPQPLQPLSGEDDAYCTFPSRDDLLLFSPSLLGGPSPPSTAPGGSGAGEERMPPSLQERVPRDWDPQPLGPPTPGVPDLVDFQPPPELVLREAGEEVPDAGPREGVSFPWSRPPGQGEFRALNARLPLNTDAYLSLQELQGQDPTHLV
T3 sequence (looked up) 2: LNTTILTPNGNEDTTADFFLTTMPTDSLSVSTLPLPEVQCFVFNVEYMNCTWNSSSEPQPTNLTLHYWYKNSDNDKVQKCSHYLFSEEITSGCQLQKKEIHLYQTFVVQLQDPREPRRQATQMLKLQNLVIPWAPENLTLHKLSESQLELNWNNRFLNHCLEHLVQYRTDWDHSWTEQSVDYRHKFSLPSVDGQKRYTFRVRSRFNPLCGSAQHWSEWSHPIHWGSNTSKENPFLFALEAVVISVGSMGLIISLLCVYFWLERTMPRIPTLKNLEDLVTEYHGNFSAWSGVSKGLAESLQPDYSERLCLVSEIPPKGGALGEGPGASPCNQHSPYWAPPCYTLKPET
Put plainly: cell-based or functional assay.
Turning to B11, the “EC50 from SEAP reporter gene assay” value was 0.121 nM.

Consider B12, for which the “EC50 from SEAP reporter gene assay” value turned out to be 0.168 nM.

In the case of B13, the “EC50 from SEAP reporter gene assay” value was 0.163 nM.

Regarding B14, the “EC50 from SEAP reporter gene assay” value was found to be 0.163 nM.

For B15, the “EC50 from SEAP reporter gene assay” value is 0.119 nM.

As to B16, the “EC50 from SEAP reporter gene assay” value was 0.286 nM.

For the molecule B17, the “EC50 from SEAP reporter gene assay” value was found to be 0.106 nM.

Take B18: the “EC50 from SEAP reporter gene assay” value was 0.216 nM.
